Reference: US20120271036A1 (UNIVERSITY OF ROCHESTER, published 2012)

B2: BC: EloB (1-118) / EloC (17-112) heterodimer (other)
chain 1: MGDVFLMIRRHKTTIFTDAKESSTVFELKRIVEGILKRPPDEQRLYKDDQLLDDGKTLGECGFTSQTARPQAPATVGLAFRADDTFEALCIEPFSSPPELPDVMKPQDSGSSANEQAVQENLYFQ
chain 2: MGYVKLISSDGHEFIVKREHALTSGTIKAMLSGPGQFAENETNEVNFREIPSHVLSKVCMYFTYKVRYTNSSTEIPEFPIAPEIALELLMAANFLDC
notes: also called EloBC; EloBC heterodimer

What was measured:
[1] = target: T1, BCvif95-155: EloB (1-118) / EloC (17-112) / Vif (95-155) (human; HIV-1 HXB2, UniProt P69723 95-155); assay: ITC, 30 C
T1 construct: range 95-155

[2] = target: T2, EloB(1-104)/EloC(17-112)/Vif(102-173) (human; HIV-1 (group M, subtype B), UniProt Q15370 2-104; Q15369 18-112; P31820 102-173); assay: ITC, 30 C
[3] = target: T3, EloB(1-118)/EloC(17-112)/Vif(95-173) (human; HIV-1 (group M, subtype B), UniProt Q15370 2-118; Q15369 18-112; P31820 95-173); assay: ITC, 30 C
[4] = target: T4, BCvif95-160: EloB (1-118) / EloC (17-112) / Vif (95-160) (human; HIV-1 HXB2, UniProt P69723 95-160); assay: ITC, 30 C
T4 construct: range 95-160

[5] = target: T5, BCvif95-192: EloB (1-118) / EloC (17-112) / Vif (95-192) (human; HIV-1 HXB2, UniProt P69723 95-192)
[6] = target: B2
[7] = target: T2, EloB(1-104)/EloC(17-112)/Vif(102-173)
[8] = target: T3, EloB(1-118)/EloC(17-112)/Vif(95-173)
[9] = target: T4, BCvif95-160: EloB (1-118) / EloC …
[10] = target: T6, BCvifVF: EloB (1-118) / EloC (17-112) / vif (95-192) (A123V, L124F) (human; HIV-1 HXB2, UniProt P69723 95-192)
[11] = target: T7, BCvifSS: EloB (1-118) / EloC (17-112) / vif (95-192) (A123S, L124S) (human; HIV-1 HXB2, UniProt P69723 95-192)
[12] = target: T7, BCvifSS: EloB (1-118) / EloC (17-112) / …; assay: ITC, 30 C; A123S/L124S mutant
[13] = target: T6, BCvifVF: EloB (1-118) / EloC (17-112) / …; assay: ITC, 30 C; A123V/L124F mutant
[14] = target: T5, BCvif95-192: EloB (1-118) / EloC …; assay: ITC, 30 C; Cul5(N) titrated into the complex
[15] = target: B2; assay: ITC, 30 C; untagged Cul5(N) titrated into EloBC
[16] = target: T5, BCvif95-192: EloB (1-118) / EloC …; assay: ITC, opposite injection order; BCvif95-192 titrated into Cul5(N)
[17] = target: the molecule itself; assay: sedimentation velocity AUC; self-association

B1: Cul5(N), human Cullin5 residues 2-384 (V341R, L345D) after removal of GST (other)
chain: GPMHMGGSTSNLLKNKGSLQFEDKWDFMRPIVLKLLRQESVTKQQWFDLFSDVHAVCLWDDKGPAKIHQALKEDILEFIKQAQARVLSHQDDTALLKAYIVEWRKFFTQCDILPKPFCQLEITLMGKQGSNKKSNVEDSIVRKLMLDTWNESIFSNIKNRLQDSAMKLVHAERLGEAFDSQLVIGVRESYVNLCSNPEDKLQIYRDNFEKAYLDSTERFYRTQAPSYLQQNGVQNYMKYADAKLKEEEKRALRYLETRRECNSVEALMECCVNALVTSFKETILAECQGMIKRNETEKLHLMFSLMDKVPNGIEPMLKDLEEHIISAGLADMVAAAETITTDSEKYREQLDTLFNRFSKLVKEAFQDDPRFLTARDKAYKAVVNDATIFK
notes: also called untagged Cul5(N)
Kd [1]: 213 nM
Kd [2]: 288 nM
Kd [3]: 337 nM
Kd [4]: 285 nM
ΔH [5]: -5210
ΔS [5]: 12.6
N [6]: 0.924
ΔH [6]: -9200
ΔS [6]: -6.39
N [7]: 0.826
ΔH [7]: -4950
ΔS [7]: 13.6
N [8]: 0.869
ΔH [8]: -5630
ΔS [8]: 11.1
ΔH [9]: -5090
ΔS [9]: 13
ΔH [10]: -4550
ΔS [10]: 13.1
ΔH [11]: -7380
ΔS [11]: 4.97
Kd [12]: 397 nM
Kd [13]: 847 nM
Kd [14]: 327 nM
Kd [15]: 6350 nM
Kd [16]: 420 nM

B2
binding result [17]: no binding (tested: 0.19, 0.37, and 1.88 mg ml^-1)
